Results reported in patent publication US20250076311A1 (Chugai, published 2025).

Assays:
Assay in all cases: SPR (Biacore), 25C, FcgR bound per antibody captured
[1] = target: T1, human FcγRIIIaV extracellular domain, His-tagged (human, UniProt P08637 17-208)
T1 construct: also called human FcgRIIIaV

[2] = target: T2, human FcγRIIb extracellular domain, His-tagged (human, UniProt P31994 43-217)
T2 construct: also called human FcgRIIb
T2 sequence: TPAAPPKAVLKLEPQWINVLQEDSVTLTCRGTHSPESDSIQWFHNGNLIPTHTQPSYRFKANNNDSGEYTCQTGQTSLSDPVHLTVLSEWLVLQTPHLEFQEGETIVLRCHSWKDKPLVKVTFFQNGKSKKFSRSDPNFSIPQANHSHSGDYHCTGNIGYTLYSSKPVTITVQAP

[3] = target: T3, human FcγRIIaH extracellular domain, His-tagged (human, UniProt P12318 34-217)
T3 construct: also called human FcgRIIaH; FcγRIIa type H
T3 sequence: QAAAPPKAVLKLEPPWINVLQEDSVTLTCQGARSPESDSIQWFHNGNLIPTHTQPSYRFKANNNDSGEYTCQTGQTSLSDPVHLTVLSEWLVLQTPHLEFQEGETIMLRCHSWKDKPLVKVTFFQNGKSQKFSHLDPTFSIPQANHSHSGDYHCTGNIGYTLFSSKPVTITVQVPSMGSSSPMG

[4] = target: T4, human FcγRIIaR extracellular domain, His-tagged (human, UniProt P12318 34-217)
T4 construct: also called human FcgRIIaR; FcγRIIa type R
T4 chain: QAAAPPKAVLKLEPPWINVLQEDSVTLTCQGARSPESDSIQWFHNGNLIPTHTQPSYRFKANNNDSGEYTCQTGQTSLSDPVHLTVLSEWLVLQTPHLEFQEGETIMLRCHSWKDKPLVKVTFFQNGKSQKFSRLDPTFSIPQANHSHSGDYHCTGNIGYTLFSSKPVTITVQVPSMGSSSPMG

T1 sequence (P08637 17-208 F176V): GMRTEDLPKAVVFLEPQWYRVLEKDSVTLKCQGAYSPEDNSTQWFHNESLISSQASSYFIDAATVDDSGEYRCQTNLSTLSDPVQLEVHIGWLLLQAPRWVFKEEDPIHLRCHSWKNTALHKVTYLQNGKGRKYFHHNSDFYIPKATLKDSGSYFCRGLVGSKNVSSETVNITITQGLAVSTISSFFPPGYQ

Row | Binder | Binding to human FcgRs (parent B3 = 100) [1] | Binding to human FcgRs (parent B3 = 100) [2] | Binding to human FcgRs (parent B3 = 100) [3] | Binding to human FcgRs (parent B3 = 100) [4]
1 | GpH7-B3 G236A / GpL16-k0 (antibody, human IgG1, kappa, also called B3 variant G236A) heavy: not shown light: DIVMTQSPLSLPVTPGEPASISCQASESLVHSNRNTYLHWYLQKPGQSPQLLIYKVSNRFSGVPDRFSGSGSGTDFTLKISRVEAEDVGVYYCSQNTHVPPTFGQGTKVEIERTVAAPSVFIFPPSDEQLKSGTASVVCLLNNFYPREAKVQWKVDNALQSGNSQESVTEQDSKDSTYSLSSTLTLSKADYEKHKVYACEVTHQGLSSPVTKSFNRGEC | 65 | 94 | 165 | 168
2 | GpH7-B3 L234Y / GpL16-k0 (antibody, human IgG1, kappa, also called B3 variant L234Y) heavy: not shown light: DIVMTQSPLSLPVTPGEPASISCQASESLVHSNRNTYLHWYLQKPGQSPQLLIYKVSNRFSGVPDRFSGSGSGTDFTLKISRVEAEDVGVYYCSQNTHVPPTFGQGTKVEIERTVAAPSVFIFPPSDEQLKSGTASVVCLLNNFYPREAKVQWKVDNALQSGNSQESVTEQDSKDSTYSLSSTLTLSKADYEKHKVYACEVTHQGLSSPVTKSFNRGEC | 63 | 55 | 38 | 50
3 | GpH7-B3 H268D / GpL16-k0 (antibody, human IgG1, kappa, also called B3 variant H268D) heavy: not shown light: DIVMTQSPLSLPVTPGEPASISCQASESLVHSNRNTYLHWYLQKPGQSPQLLIYKVSNRFSGVPDRFSGSGSGTDFTLKISRVEAEDVGVYYCSQNTHVPPTFGQGTKVEIERTVAAPSVFIFPPSDEQLKSGTASVVCLLNNFYPREAKVQWKVDNALQSGNSQESVTEQDSKDSTYSLSSTLTLSKADYEKHKVYACEVTHQGLSSPVTKSFNRGEC | 220 | 307 | 173 | 142
4 | GpH7-B3 K334V / GpL16-k0 (antibody, human IgG1, kappa, also called B3 variant K334V) heavy: not shown light: DIVMTQSPLSLPVTPGEPASISCQASESLVHSNRNTYLHWYLQKPGQSPQLLIYKVSNRFSGVPDRFSGSGSGTDFTLKISRVEAEDVGVYYCSQNTHVPPTFGQGTKVEIERTVAAPSVFIFPPSDEQLKSGTASVVCLLNNFYPREAKVQWKVDNALQSGNSQESVTEQDSKDSTYSLSSTLTLSKADYEKHKVYACEVTHQGLSSPVTKSFNRGEC | 176 | 184 | 172 | 132
5 | GpH7-B3 K334M / GpL16-k0 (antibody, human IgG1, kappa, also called B3 variant K334M) heavy: not shown light: DIVMTQSPLSLPVTPGEPASISCQASESLVHSNRNTYLHWYLQKPGQSPQLLIYKVSNRFSGVPDRFSGSGSGTDFTLKISRVEAEDVGVYYCSQNTHVPPTFGQGTKVEIERTVAAPSVFIFPPSDEQLKSGTASVVCLLNNFYPREAKVQWKVDNALQSGNSQESVTEQDSKDSTYSLSSTLTLSKADYEKHKVYACEVTHQGLSSPVTKSFNRGEC | 183 | 148 | 151 | 127
6 | GpH7-B3 K334Y / GpL16-k0 (antibody, human IgG1, kappa, also called B3 variant K334Y) heavy: not shown light: DIVMTQSPLSLPVTPGEPASISCQASESLVHSNRNTYLHWYLQKPGQSPQLLIYKVSNRFSGVPDRFSGSGSGTDFTLKISRVEAEDVGVYYCSQNTHVPPTFGQGTKVEIERTVAAPSVFIFPPSDEQLKSGTASVVCLLNNFYPREAKVQWKVDNALQSGNSQESVTEQDSKDSTYSLSSTLTLSKADYEKHKVYACEVTHQGLSSPVTKSFNRGEC | 188 | 160 | 157 | 131
7 | GpH7-B3 L234W / GpL16-k0 (antibody, human IgG1, kappa, also called B3 variant L234W) heavy: not shown light: DIVMTQSPLSLPVTPGEPASISCQASESLVHSNRNTYLHWYLQKPGQSPQLLIYKVSNRFSGVPDRFSGSGSGTDFTLKISRVEAEDVGVYYCSQNTHVPPTFGQGTKVEIERTVAAPSVFIFPPSDEQLKSGTASVVCLLNNFYPREAKVQWKVDNALQSGNSQESVTEQDSKDSTYSLSSTLTLSKADYEKHKVYACEVTHQGLSSPVTKSFNRGEC | 36 | 90 | 64 | 63
8 | GpH7-B3 P271D / GpL16-k0 (antibody, human IgG1, kappa, also called B3 variant P271D) heavy: not shown light: DIVMTQSPLSLPVTPGEPASISCQASESLVHSNRNTYLHWYLQKPGQSPQLLIYKVSNRFSGVPDRFSGSGSGTDFTLKISRVEAEDVGVYYCSQNTHVPPTFGQGTKVEIERTVAAPSVFIFPPSDEQLKSGTASVVCLLNNFYPREAKVQWKVDNALQSGNSQESVTEQDSKDSTYSLSSTLTLSKADYEKHKVYACEVTHQGLSSPVTKSFNRGEC | 85 | 110 |  | 55
9 | GpH7-B3 K326T / GpL16-k0 (antibody, human IgG1, kappa, also called B3 variant K326T) heavy: not shown light: DIVMTQSPLSLPVTPGEPASISCQASESLVHSNRNTYLHWYLQKPGQSPQLLIYKVSNRFSGVPDRFSGSGSGTDFTLKISRVEAEDVGVYYCSQNTHVPPTFGQGTKVEIERTVAAPSVFIFPPSDEQLKSGTASVVCLLNNFYPREAKVQWKVDNALQSGNSQESVTEQDSKDSTYSLSSTLTLSKADYEKHKVYACEVTHQGLSSPVTKSFNRGEC | 164 | 195 | 138 | 127
10 | GpH7-B3 G236D / GpL16-k0 (antibody, human IgG1, kappa, also called B3 variant G236D) heavy: not shown light: DIVMTQSPLSLPVTPGEPASISCQASESLVHSNRNTYLHWYLQKPGQSPQLLIYKVSNRFSGVPDRFSGSGSGTDFTLKISRVEAEDVGVYYCSQNTHVPPTFGQGTKVEIERTVAAPSVFIFPPSDEQLKSGTASVVCLLNNFYPREAKVQWKVDNALQSGNSQESVTEQDSKDSTYSLSSTLTLSKADYEKHKVYACEVTHQGLSSPVTKSFNRGEC | 25 | 212 | 109 | 91
11 | GpH7-B3 G236S / GpL16-k0 (antibody, human IgG1, kappa, also called B3 variant G236S) heavy: not shown light: DIVMTQSPLSLPVTPGEPASISCQASESLVHSNRNTYLHWYLQKPGQSPQLLIYKVSNRFSGVPDRFSGSGSGTDFTLKISRVEAEDVGVYYCSQNTHVPPTFGQGTKVEIERTVAAPSVFIFPPSDEQLKSGTASVVCLLNNFYPREAKVQWKVDNALQSGNSQESVTEQDSKDSTYSLSSTLTLSKADYEKHKVYACEVTHQGLSSPVTKSFNRGEC | 33 | 87 | 147 | 161
12 | GpH7-B3 I332D / GpL16-k0 (antibody, human IgG1, kappa, also called B3 variant I332D) heavy: not shown light: DIVMTQSPLSLPVTPGEPASISCQASESLVHSNRNTYLHWYLQKPGQSPQLLIYKVSNRFSGVPDRFSGSGSGTDFTLKISRVEAEDVGVYYCSQNTHVPPTFGQGTKVEIERTVAAPSVFIFPPSDEQLKSGTASVVCLLNNFYPREAKVQWKVDNALQSGNSQESVTEQDSKDSTYSLSSTLTLSKADYEKHKVYACEVTHQGLSSPVTKSFNRGEC | 235 | 198 | 129 | 139
13 | GpH7-B3 K334D / GpL16-k0 (antibody, human IgG1, kappa, also called B3 variant K334D) heavy: not shown light: DIVMTQSPLSLPVTPGEPASISCQASESLVHSNRNTYLHWYLQKPGQSPQLLIYKVSNRFSGVPDRFSGSGSGTDFTLKISRVEAEDVGVYYCSQNTHVPPTFGQGTKVEIERTVAAPSVFIFPPSDEQLKSGTASVVCLLNNFYPREAKVQWKVDNALQSGNSQESVTEQDSKDSTYSLSSTLTLSKADYEKHKVYACEVTHQGLSSPVTKSFNRGEC | 155 | 108 | 97 | 72
14 | GpH7-B3 G236E / GpL16-k0 (antibody, human IgG1, kappa, also called B3 variant G236E) heavy: not shown light: DIVMTQSPLSLPVTPGEPASISCQASESLVHSNRNTYLHWYLQKPGQSPQLLIYKVSNRFSGVPDRFSGSGSGTDFTLKISRVEAEDVGVYYCSQNTHVPPTFGQGTKVEIERTVAAPSVFIFPPSDEQLKSGTASVVCLLNNFYPREAKVQWKVDNALQSGNSQESVTEQDSKDSTYSLSSTLTLSKADYEKHKVYACEVTHQGLSSPVTKSFNRGEC | 33 | 117 | 142 | 131
15 | GpH7-B3 H268E / GpL16-k0 (antibody, human IgG1, kappa, also called B3 variant H268E) heavy: not shown light: DIVMTQSPLSLPVTPGEPASISCQASESLVHSNRNTYLHWYLQKPGQSPQLLIYKVSNRFSGVPDRFSGSGSGTDFTLKISRVEAEDVGVYYCSQNTHVPPTFGQGTKVEIERTVAAPSVFIFPPSDEQLKSGTASVVCLLNNFYPREAKVQWKVDNALQSGNSQESVTEQDSKDSTYSLSSTLTLSKADYEKHKVYACEVTHQGLSSPVTKSFNRGEC | 205 | 283 | 169 | 132
